Target: T1, interferon regulatory factor 8 (IRF8) (human (endogenous in CAL-1 and primary …, UniProt Q02556 1-426))
T1 sequence (looked up): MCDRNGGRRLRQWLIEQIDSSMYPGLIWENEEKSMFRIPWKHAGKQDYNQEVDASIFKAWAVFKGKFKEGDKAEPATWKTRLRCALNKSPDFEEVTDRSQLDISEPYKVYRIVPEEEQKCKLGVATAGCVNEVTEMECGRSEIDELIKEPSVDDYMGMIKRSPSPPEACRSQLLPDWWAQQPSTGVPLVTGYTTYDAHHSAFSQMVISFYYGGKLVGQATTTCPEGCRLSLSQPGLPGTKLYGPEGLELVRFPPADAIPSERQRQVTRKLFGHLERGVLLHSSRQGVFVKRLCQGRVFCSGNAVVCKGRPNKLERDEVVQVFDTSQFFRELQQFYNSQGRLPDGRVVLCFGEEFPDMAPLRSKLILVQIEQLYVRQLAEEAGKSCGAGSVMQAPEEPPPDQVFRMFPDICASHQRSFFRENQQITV
Assay: proximity ligation

fold of nuclear PLA colocalization over unstimulated cells (after 1 h CpG ODN): > 3 fold
B1: interferon regulatory factor 5 (IRF5) (natural protein, UniProt Q13568 1-498, looked up)
chain: MNQSIPVAPTPPRRVRLKPWLVAQVNSCQYPGLQWVNGEKKLFCIPWRHATRHGPSQDGDNTIFKAWAKETGKYTEGVDEADPAKWKANLRCALNKSRDFRLIYDGPRDMPPQPYKIYEVCSNGPAPTDSQPPEDYSFGAGEEEEEEEELQRMLPSLSLTEDVKWPPTLQPPTLRPPTLQPPTLQPPVVLGPPAPDPSPLAPPPGNPAGFRELLSEVLEPGPLPASLPPAGEQLLPDLLISPHMLPLTDLEIKFQYRGRPPRALTISNPHGCRLFYSQLEATQEQVELFGPISLEQVRFPSPEDIPSDKQRFYTNQLLDVLDRGLILQLQGQDLYAIRLCQCKVFWSGPCASAHDSCPNPIQREVKTKLFSLEHFLNELILFQKGQTNTPPPFEIFFCFGEEWPDRKPREKKLITVQVVPVAARLLLEMFSGELSWSADSIRLQISNPDLKDRMVEQFKELHHIWQSQQRLQPVAQAPPGAGLGVGQGPWPMHPAGMQ

Source: publication PMC6385590 (European journal of immunology, 2015)
